The results in this text go back to publication PMC9522936, “Regain flood adaptation in rice through a 14-3-3 protein OsGF14h” (Nature Communications, 2022).

One data set deals with T1, OsHOX3 (Oryza sativa, UniProt Q9XH38 1-229).
T1 sequence: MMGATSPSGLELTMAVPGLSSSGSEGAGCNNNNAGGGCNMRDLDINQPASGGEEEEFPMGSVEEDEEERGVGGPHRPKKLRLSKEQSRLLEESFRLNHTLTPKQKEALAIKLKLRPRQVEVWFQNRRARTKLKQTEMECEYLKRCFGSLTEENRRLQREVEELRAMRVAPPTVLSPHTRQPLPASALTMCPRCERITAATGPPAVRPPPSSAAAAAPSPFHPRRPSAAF
Nature of the data set: EMSA; without OsGF14h; Chemiluminescent EMSA Kit GS009 (Beyotime) per manufacturer; 6% native polyacrylamide gel; unlabeled competitor 10x and 20x; buffer, pH and temperature not stated. Conditions: protein: recombinant; tags: GST (pGEX4T-1; N-terminal); chain copies: 2; label: biotin 3' end; blunt.

The target of the next data set is T2, His-OsGF14h^SN9816 (rice (Oryza sativa), japonica variety …, UniProt Q2R1D5 1-230).
T2 construct: also called Hap1; source: E. coli Rosetta (DE3), purified (Ni NTA beads)
T2 sequence (looked up): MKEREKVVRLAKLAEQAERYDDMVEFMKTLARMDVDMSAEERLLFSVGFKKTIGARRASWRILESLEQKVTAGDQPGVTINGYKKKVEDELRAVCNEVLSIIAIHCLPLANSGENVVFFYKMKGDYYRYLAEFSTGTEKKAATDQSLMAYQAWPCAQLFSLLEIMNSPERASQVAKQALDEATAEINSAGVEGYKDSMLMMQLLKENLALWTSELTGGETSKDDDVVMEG
Nature of the data set: pull-down; GST-OsHOX3 or GST-OsVP1 as bait on GST beads, equal quantities of recombinant proteins in GST pull-down buffer at 4 °C overnight, His-OsGF14h detected by anti-His. To be noted: both partners purified.

B1: OsPYL5 promoter HD-ZIP3 probe (55 bp) (dsDNA)
DNA 1: AATATAAAACGGTGGGAGTATTAATGATTACATAGTCAATTTTATGTTTGCATTA
DNA 2: TAATGCAAACATAAAATTGACTATGTAATCATTAATACTCCCACCGTTTTATATT
For the molecule B1, in the data set with OsHOX3, the binding result is listed as “binds”.

B2: GST-OsHOX3 (natural protein, rice, UniProt Q0JKX1 1-229, looked up)
chain: T1 sequence
notes: HD-Zip family transcription factor OsHOX3, rice; source: E. coli Rosetta (DE3), purified (GST beads)
As for B2, the binding result with His-OsGF14h^SN9816 was “binds”.
